Patent US20230094463A1, “ANTIBODIES THAT DISRUPT THE INTERACTION OF GAL3 AND INSULIN RECEPTOR OR INTEGRINS AND METHODS OF USE THEREOF” (TrueBinding, Inc., priority 2019, published 2023)

Key:
[1] = target: T1, human Gal3 (Homo sapiens, UniProt P17931); assay: Antibody binning assays (competition for binding to Gal3); details: binning per Examples 3 and 18
T1 construct: His; purchased AcroBio GA3-H5129
Description: To determine whether Gal3-binding antibodies with Gal3-INSR blocking activity bind to the same or overlapping regions of the Gal3 molecule, antibody binning assays were performed to assess the ability of antibodies to simultaneously bind Gal3. Amine-reactive probes were loaded onto a Gator biosensor (Probe Life, Palo Alto, Calif.), equilibrated in dH20 for 60 seconds, dipped into 100 μl EDC 0.2M/NHS 0.05M activation buffer for 30 seconds, then dipped into a solution of […] human Gal3-His in 10 mM NaOAc buffer, pH 5 until binding was saturated, and quenched in 1 M ethanolamine pH 8.5 for 300 seconds. Following Gal3-His loading, tips were dipped in 20 μg/mL saturating antibody, then successively dipped into 5 μg/mL competing antibody.
The epitope binning assay was done in a sandwich format on the high-throughput SPR-based Carterra LSA unit (CarterraBio, Salt Lake City, Utah). First, the purified antibodies were diluted to 10 μg/ml concentration in 10 mM NaOAc (pH 5.0) and then were covalently coupled via amine group to HC200M chip activated by EDC and S-NHS to immobilize antibodies to different positions of a 384-spot array. One hundred thirty-eight binning cycles were run on the array of immobilized antibodies. In each cycle, first, human Gal3 (AcroBio GA3-H5129) was injected over the entire array to bind to different antibodies (primary antibody), followed by one antibody (secondary antibody) selected among the panel of 150 anti-GAL3 antibodies tested. At the end of each cycle, the array was regenerated by 10 mM Glycine (pH 2.0) to remove bound antigen and secondary antibody from the array. The data analysis was done using the Epitope software by CarterraBio.

[2] = target: T2, Gal3 peptides (SEQ ID NOs: 3-26) (Homo sapiens, UniProt P17931); assay: Gal3 peptide library binding ELISA (epitope mapping); details: for binding to Gal3 Peptide 7: Peptide 7 (SEQ ID NO: 9), amino acids 61-80 of Gal3; for binding to Gal3 Peptide 1: Peptide 1 (SEQ ID NO: 3), amino acids 1-20 of Gal3; for binding to Gal3 Peptide 6: Peptide 6 (SEQ ID NO: 8), amino acids 51-70 of Gal3
T2 construct: a library of 24 amino acid peptides representing portions of Gal3; purchased LifeTein custom order
Description: To identify the epitopes to which Gal3 antibodies with and without Gal3-INSR blocking activity bound, a library of 24 amino acid peptides representing portions of Gal3, depicted in FIG. 27, was produced and the ability of each peptide to bind Gal3 antibodies was evaluated by ELISA. At least 2 μg/ml of hGal3 peptide in 50 μl of PBS or 0.1 μg/ml of full-length human Gal3 protein (GenScript) and human Galectin-3 protein (Acro Biosystems, GA3-H5129) were diluted in PBS (Corning, 21-030-CM) to concentrations of at least 2 μg/ml or 0.1 μg/ml, respectively, and added to the wells of a 96-well ELISA plate (Thermo Fisher, 44-2404-21). After incubating the plate at 4° C. overnight, the plate was washed three times with PBST (PBS with 0.05% Tween 20 [VWR, 0777]). The plate was then blocked for an hour with 2% BSA (EMD Millipore, 126609) in PBST at room temperature with gentle rocking. Thereafter, the 2% BSA in PBST was discarded and human Galectin-3 hybridoma supernatants or antibodies were diluted in 2% BSA in PBST to concentrations of at least 0.1 μg/ml and added to the wells. The plate was incubated for an hour at room temperature with gentle rocking and then washed three times with PBST. Afterwards, Goat Anti-Mouse IgG-HRP (Jackson ImmunoResearch, 115-036-1461) or Goat Anti-Rat IgG HRP (Abcam, ab205720) diluted in 2% BSA in PBST (1:4000) were added to the wells. The plate was incubated for 30 minutes to 1 hour at room temperature with gentle rocking and then washed three times with PBST. TMB substrate (Thermo Scientific, 34029) was then added to each well. The reaction was stopped with 1M HCl (JT Baker, 5620-02) and read using a plate reader (Molecular Devices) at absorbance of 450 nm.
Human Gal3 peptides (LifeTein, custom order) and human Gal3 proteins (R&D Systems, 8259-GA; TrueBinding, QCB200349) were diluted in PBS (Corning, 21-030-CM) to concentrations of at least 100 μg/mL (peptides) or 1 μg/mL (proteins), and added to the wells of several 96-well ELISA plates (Thermo Fisher, 44-2404-21). After incubating the plates at 4° C. overnight, the plates were washed three times with PBST (PBS with 0.05% Tween 20 [VWR, 0777]). The plates were then blocked for an hour with 2% BSA (EMD Millipore, 126609) in PBST at room temperature with gentle rocking. Thereafter, the 2% BSA in PBST was discarded and Gal3-binding antibodies (reformatted hIgG4 [S228P]) were diluted in 2% BSA in PBST to concentrations of 5 μg/mL and added to the wells. The plates were incubated for an hour at room temperature with gentle rocking and then washed three times with PBST. Afterwards, Peroxidase AffiniPure F(ab′)2 Fragment Goat Anti-Human IgG (H+L) polyclonal antibody (Jackson ImmunoResearch, 109-036-003), was diluted in 2% BSA in PBST (1:4000) and added to the wells. The plates were incubated for 1 hour at room temperature with gentle rocking and then washed three times with PBST. TMB substrate (Thermo Scientific, 34029) was then added to each well. The reaction was stopped with 1M HCl (JT Baker, 5620-02) and read using a plate reader (Molecular Devices) at absorbance of 450 nm.

T1 sequence (P17931 whole entry): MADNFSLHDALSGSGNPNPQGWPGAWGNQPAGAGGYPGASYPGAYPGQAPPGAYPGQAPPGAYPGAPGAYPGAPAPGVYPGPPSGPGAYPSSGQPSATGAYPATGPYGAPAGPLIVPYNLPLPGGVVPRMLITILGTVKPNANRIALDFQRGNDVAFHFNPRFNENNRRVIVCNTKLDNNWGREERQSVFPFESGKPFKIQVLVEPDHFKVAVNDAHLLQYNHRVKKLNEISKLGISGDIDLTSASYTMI

| Molecule | epitope bin (competitive binding to Gal3) [1] | binding to Gal3 Peptide 2 ([2]; Peptide 2 (SEQ ID NO: 4)) | binding to Gal3 Peptide 3 ([2]; Peptide 3 (SEQ ID NO: 5)) | binding to Gal3 Peptide 4 ([2]; Peptide 4 (SEQ ID NO: 6), amino acids 31-50 of Gal3) | binding to Gal3 Peptide 7 [2] | binding to Gal3 Peptide 1 [2] | binding to Gal3 Peptide 6 [2] |
| --- | --- | --- | --- | --- | --- | --- | --- |
| 15F10.2D6: anti-Gal3 monoclonal antibody (antibody, V domains shown) VH: EVQLVESGGGLVKPGGSLKLSCAASGFAFSSYAMSWVRQTPEKRLEWVATISDGGVYTYYTDHVKGRFTISRDNAEDNLYLQMSHLKSEDTAMYYCVRDGGYWGQGTTLTVSS VL: DVLMTQTPLSLPVSLGDQASISCRSSQSIVHNNGNTYLEWYLQKPGQSPKLLIYKVSNRFSGVPDRFSGSGSGTDFTLKISRVEAEDLGVYYCFQGSHVPLTFGGGTKLELK | bin 8 | bind | bind | bind | bind and bound | – | – |
| 20D11.2C6: anti-Gal3 monoclonal antibody (antibody, V domains shown) VH: EVQLQQSGPELVKPGASVKISCKASGYTFTDFYINWVKQSHGKSLEWIGDINPKNGGINYNPKFKIKATLTVDKSSSTSYMDLRGLTSEDSAVYYCTSGYGFPYWGQGTLVTVSA VL: DIQMNQSPSSLSASLGDTITITCRASQNIYIWLSWYQQKPGNIPKLLIYKASNLHTGVPSRFSGSGSGTDFTLTISTLQPEDIATYFCLQGQSYPLTFGAGTKLEMK | bins 5 | – | – | – | bind and bound | bind and bound | bound |
| 2D10.2B2: anti-Gal3 monoclonal antibody (antibody, V domains shown) VH: QVQLQQSGPELVKPGASVKISCKASGYTFTDYYINWVKQRPGQGLEWIGWIYPGSNDTKYNEKFKGKATLTVDTSSSTAYMQLGSLTSEDSAVYFCANYFGCSGWFFDVWGTGTTVTVSS VL: DIVMTQAAFSNPVTLGTSASISCRSSKSLLHSDGITYLYWYLQRPGQSPQLLIYRMSNLASGVPDRFSGSGSGTDFTLRISRVEAEDVGVYYCAQMIEFPLTFGAGTILELK | bin 3 | – | – | – | bound | bound | bind and bound |
| 4A11.2B5: anti-Gal3 monoclonal antibody (antibody, V domains shown) VH: QVQLQQSGPELVKPGASVKISCKASGYSFTNYYIHWVKQRPGQGLEWIGWIYPGSGNTNYNEKFKGKATLTADTSSSTTNMQLSSLTSEDSAVYYCSTAPGGFDVWGSGTTVTVSS VL: DIVMTQAAFSNPVTLGTSASISCRSSKSLLHSDGITYLYWYLQRPGQSPQLLIYRMSNLASGVPDRFSGSGSGTDFTLRISRVEAEDVGVYYCAQMLEFPLTFGAGTKLELK | bin 3 | – | – | – | – | – | bind and bound |
| 19B5.2E6: anti-Gal3 monoclonal antibody (antibody, V domains shown) VH: QIQLVQSGPELKKPGETVKISCKASGYTFTTYAMSWVKQAPGKGLKWMGWINTYSGVPTYADDLKGRFAFSLETSASTAYLQINNLKNEDTATYFCARGPYAMDYWGQGTSVTVSS VL: DIQMTQTTSSLSASLGDRVTISCSASQGINNYLNWYQQKPDGTVKLLIYYASSLHSGVPSRFSGSGSGTDYSLTISNLEPEDIATYYCQQYSQVPYTFGSGTKLEIK | bin 3 | – | – | – | bind and bound | bind and bound | – |
